Results published in publication PMC7096168.

T1: dCTCF zinc finger cluster (UniProt Q9VS55 294-614)
T1 sequence: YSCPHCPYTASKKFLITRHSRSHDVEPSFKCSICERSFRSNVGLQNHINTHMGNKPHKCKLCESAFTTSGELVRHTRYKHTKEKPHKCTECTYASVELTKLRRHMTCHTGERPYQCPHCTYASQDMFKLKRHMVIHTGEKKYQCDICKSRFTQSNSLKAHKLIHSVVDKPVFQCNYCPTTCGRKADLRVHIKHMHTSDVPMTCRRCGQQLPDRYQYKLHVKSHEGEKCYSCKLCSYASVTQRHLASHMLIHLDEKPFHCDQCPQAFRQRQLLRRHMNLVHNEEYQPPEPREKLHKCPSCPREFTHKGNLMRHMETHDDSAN

T2: Su(Hw) zinc finger cluster (UniProt P08970 220-619)
T2 sequence: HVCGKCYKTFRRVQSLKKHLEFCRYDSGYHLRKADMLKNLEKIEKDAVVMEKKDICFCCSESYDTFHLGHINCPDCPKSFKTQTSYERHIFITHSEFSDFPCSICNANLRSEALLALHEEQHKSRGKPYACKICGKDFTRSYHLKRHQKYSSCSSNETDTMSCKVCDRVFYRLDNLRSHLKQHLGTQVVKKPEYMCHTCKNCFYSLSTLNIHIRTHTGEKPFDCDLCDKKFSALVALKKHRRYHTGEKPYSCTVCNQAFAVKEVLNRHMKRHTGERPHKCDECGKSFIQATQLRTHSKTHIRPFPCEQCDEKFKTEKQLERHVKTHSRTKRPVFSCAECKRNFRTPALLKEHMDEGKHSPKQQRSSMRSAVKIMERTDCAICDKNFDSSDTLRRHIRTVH

B1: CTCF×4 (dsDNA)
DNA 1: ACTAGTGCTGCAGCGCCACCTGGCCTTGGAGATCCTGCAGCGCCACCTGGCCTTGGAGATCCTGCAGCGCCACCTGGCCTTGGAGATCTCCAAGGCCAGGTGGCGCTGCAGCCCCGGG
DNA 2: CCCGGGGCTGCAGCGCCACCTGGCCTTGGAGATCTCCAAGGCCAGGTGGCGCTGCAGGATCTCCAAGGCCAGGTGGCGCTGCAGGATCTCCAAGGCCAGGTGGCGCTGCAGCACTAGT
B2: F2177 (dsDNA)
DNA 1: ATGCCTAAAAGTATGCAGAAATTTGTTCAACAAGTCTGCTTATGTGCACCCTCTCGCGATCGGTGGCATAACCAATCGAGGATTCAGCTCTTGAGCTACCTGCCGAAAGGGGCGCGGCGACCTTAAGGGCGACATCTATATCTCGCATAGTGTGCAGAACTGCTTGTTCCTAGTCAC
DNA 2: GTGACTAGGAACAAGCAGTTCTGCACACTATGCGAGATATAGATGTCGCCCTTAAGGTCGCCGCGCCCCTTTCGGCAGGTAGCTCAAGAGCTGAATCCTCGATTGGTTATGCCACCGATCGCGAGAGGGTGCACATAAGCAGACTTGTTGAACAAATTTCTGCATACTTTTAGGCAT
B3: F2177Δ21 (dsDNA)
DNA 1: ATGCCTAAAAGTATGCAGAAATTTGTTCAACAAGTCTGCTTATGTGCACCCTCTCGCGATCGGTGGCATAACCAATCGAGGATTCAGCTCTTGAGCTACCTGCAAGCTTAAGGGCGACATCTATATCTCGCATAGTGTGCAGAACTGCTTGTTCCTAGTCAC
DNA 2: GTGACTAGGAACAAGCAGTTCTGCACACTATGCGAGATATAGATGTCGCCCTTAAGCTTGCAGGTAGCTCAAGAGCTGAATCCTCGATTGGTTATGCCACCGATCGCGAGAGGGTGCACATAAGCAGACTTGTTGAACAAATTTCTGCATACTTTTAGGCAT
B4: F2177ΔSu (dsDNA)
DNA 1: GTTCAACAAGTCTGCTTATGTGCACCCTCTCGCGATCGGTGGCATAACCAATCGAGGATTCAGCTCTTGAGCTACCTGCCGAAAGGGGCGCGGCGACCTTAAGGGCGACATCTATATCTCGCATAGTGTGCAGAACTGCTTGTTCCTAGTCAC
DNA 2: GTGACTAGGAACAAGCAGTTCTGCACACTATGCGAGATATAGATGTCGCCCTTAAGGTCGCCGCGCCCCTTTCGGCAGGTAGCTCAAGAGCTGAATCCTCGATTGGTTATGCCACCGATCGCGAGAGGGTGCACATAAGCAGACTTGTTGAAC
B5: F2177ΔC (dsDNA)
DNA 1: ATGCCTAAAAGTATGCAGAAATTTGTTCAACAAGTCTGCTTATGTGCACCCTCTCGCGATCGGTGGCATAACCAATCGAGGATTCAGCTCTTGAGCTACCTGCCGAAAGGGGCGCGGCAACCTTAAGCTTGCATAGTGTGCAGAACTGCTTGTTCCTAGTCAC
DNA 2: GTGACTAGGAACAAGCAGTTCTGCACACTATGCAAGCTTAAGGTTGCCGCGCCCCTTTCGGCAGGTAGCTCAAGAGCTGAATCCTCGATTGGTTATGCCACCGATCGCGAGAGGGTGCACATAAGCAGACTTGTTGAACAAATTTCTGCATACTTTTAGGCAT

These binders were tested against T1, dCTCF zinc finger cluster (assay: EMSA).
B1: binds.
B2: binds.
B3: binds.
B4: binds.
B5: no binding.

What follows are binders tested against T2, Su(Hw) zinc finger cluster (assay: EMSA).
B2: binds.
B4: no binding.
B5: binds.
